± gives the uncertainty stated by the source.
Assay: abundance fitness (aPCA) (normalised: wild type 0, dead -1); higher = more abundant; growth selection in yeast, the domain comes from the species named
Details: Homo sapiens

“E3 ubiquitin-protein ligase NEDD4-like L226A, Q96PU5” and “E3 ubiquitin-protein ligase NEDD4-like L226S, Q96PU5” are within error of each other in abundance fitness: 0.021 ± 0.072 for the first, 0.034 ± 0.07 for the second.

First: E3 ubiquitin-protein ligase NEDD4-like M227N, Q96PU5
Second: E3 ubiquitin-protein ligase NEDD4-like G207L, Q96PU5
The abundance fitness of the first is higher: -0.024 ± 0.099 for the first, -0.432 ± 0.052 for the second.

Substance “E3 ubiquitin-protein ligase NEDD4-like H186F, Q96PU5” has an abundance fitness of -0.111 ± 0.12.

Reference: the Human Domainome abundance scans (Beltran et al. 2025)
